Measurements from patent publication US11110171B2, “PD-1 related cancer therapy” (New York University, priority 2017, dated 2021).

Molecular target: T1, SHP2 binding to GST-PD1 (Homo sapiens, UniProt Q06124)
T1 construct: endogenous in cells; host or cells: SAP-knockdown Jurkat T cells (SHP2); GST-PD-1 tail made in BL21 E. coli
T1 sequence (Q06124 2-593 limits assumed): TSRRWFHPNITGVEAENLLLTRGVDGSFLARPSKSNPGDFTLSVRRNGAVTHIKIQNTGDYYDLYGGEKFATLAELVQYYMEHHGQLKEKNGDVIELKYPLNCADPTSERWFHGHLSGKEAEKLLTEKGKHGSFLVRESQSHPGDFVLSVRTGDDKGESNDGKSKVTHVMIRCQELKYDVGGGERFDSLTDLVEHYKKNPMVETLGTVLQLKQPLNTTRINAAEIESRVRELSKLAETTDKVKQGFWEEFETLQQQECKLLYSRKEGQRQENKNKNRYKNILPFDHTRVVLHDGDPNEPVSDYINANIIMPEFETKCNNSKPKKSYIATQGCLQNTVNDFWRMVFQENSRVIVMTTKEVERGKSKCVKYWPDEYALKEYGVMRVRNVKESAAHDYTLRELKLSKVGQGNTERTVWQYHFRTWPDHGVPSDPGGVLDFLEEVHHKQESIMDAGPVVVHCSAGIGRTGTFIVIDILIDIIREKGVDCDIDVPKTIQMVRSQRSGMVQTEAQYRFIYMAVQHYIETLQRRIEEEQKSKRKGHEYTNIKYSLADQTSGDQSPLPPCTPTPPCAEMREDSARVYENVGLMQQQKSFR
T1 sequence (Q15116 192-288 partner limits assumed): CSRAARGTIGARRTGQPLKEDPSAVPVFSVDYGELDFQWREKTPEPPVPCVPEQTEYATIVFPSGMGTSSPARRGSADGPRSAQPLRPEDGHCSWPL
Assay: Affinity purification of SHP2 by GST-PD1 with increasing concentrations of recombinant SAP
Conditions: increasing concentrations of recombinant SAP added to SAP KD Jurkat cell lysate
Protocol: FIG. 3. SAP is indirectly associated with PD-1. (ai) Pervanadate treated Jurkat T cells were transiently transfected with GFP-tagged PD-1 or GFP alone; Whole cell lysates (WCL) were immunoprecipitated with an anti-GFP antibody (IP: GFP), and samples were analyzed by immunoblotting. (aii) Densitometry values of data shown in ai. (b) Jurkat T cells were transfected with plasmids directing expression of the indicated fluorescent proteins and after 24 hours cells were stimulated with anti-CD3 antibodies and recombinant PDL2, followed by live-imaging. Bar, 10 μm. […] (di) Jurkat T cells were transfected with different versions of GFP-tagged PD-1, as indicated, followed by treatment with pervanadate; Whole-cell lysates (Input) were immunoprecipitated with an anti-GFP antibody (IP: GFP), and samples were analyzed by immunoblotting. […] (ei) 293T cells were transfected with plasmid directing expression of GFP-SAP or a control GFP plasmid, followed by treatment with pervanadate; Lysates were pulled-down with the GST-tagged PD-1 and samples were analyzed by immunoblotting. […] (gi) SHP2 KD and scrambled control Jurkat T cells were transfected with GFP-tagged PD-1, followed by treatment with pervanadate; Lysates were immunoprecipitated with an anti-GFP antibody (IP: GFP), and samples were analyzed by immunoblotting. […] Samples were analyzed by immunoblot. […]

B1: SAP: Recombinant human SAP (His tagged), signaling lymphocytic activation molecule-associated protein, purchased from Abcam (protein, UniProt O60880 1-128, looked up)
SH2 domain-containing protein …: MDAVAVYHGKISRETGEKLLLATGLDGSYLLRDSESVPGVYCLCVLYHGYIYTYRVSQTETGSWSAETAPGVHKRYFRKIKNLISAFQKPDQGIVIPLQYPVEKKSSARSTQGTTGIREDPDVCLKAP
modifications: His tag
  interference with the affinity-purification of SHP2 by GST-PD1: did not interfere
